In PMC6366944 (Cell, 2018):

B1: unlabeled NP peptide (peptide)
peptide: RTPTVAPPAPVYRDHS
B2: MBP fusion of RBBP6 residues 549-573 (peptide)
chain: SLPATPVFVPVPPPPLYPPPPHTLP
B3: RBBP6 peptide, residues 549-571 (peptide)
peptide: SLPATPVFVPVPPPPLYPPPPHT

Columns and labels:
[1] = molecular target: T1, EBOV VP30 C-terminal domain, residues 130-272 (Zaire ebolavirus, UniProt Q05323 130-272); experiment: fluorescence polarisation
T1 sequence: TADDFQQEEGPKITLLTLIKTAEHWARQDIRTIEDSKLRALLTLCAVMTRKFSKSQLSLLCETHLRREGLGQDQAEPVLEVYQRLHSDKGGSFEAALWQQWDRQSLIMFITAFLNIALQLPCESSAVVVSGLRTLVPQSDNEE

[2] = molecular target: T2, EBOV VP30 residues 89-288 (in vitro pull-down) (Zaire ebolavirus, UniProt Q05323 89-288); experiment: pull-down
T2 sequence: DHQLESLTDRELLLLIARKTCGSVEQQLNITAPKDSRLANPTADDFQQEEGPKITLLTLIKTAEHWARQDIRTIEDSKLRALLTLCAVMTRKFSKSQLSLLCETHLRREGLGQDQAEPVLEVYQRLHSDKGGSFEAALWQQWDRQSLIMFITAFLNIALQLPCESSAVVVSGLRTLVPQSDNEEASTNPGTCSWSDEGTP

[3] = molecular target: T1, EBOV VP30 C-terminal domain, residues …; experiment: ITC

Binder | Kd [1] [µM] | binding result [2] | Kd [3] [µM] | stoichiometry N [3]
B1 | 89.2 ± 2.26 | – | – | –
B2 | – | binds | – | –
B3 | 18.1 ± 0.41 | – | 0.75 ± 0.095 | 1
